This data set deals with the molecule itself. The experiment in a line: AUC.

B1: NBB182 (human MLKL N-terminal helix bundle and whole brace, to residue 182), tagless purified protein (domain or fragment, UniProt Q8NB16 1-182, looked up)
chain: MENLKHIITLGQVIHKRCEEMKYCKKQCRRLGHRVLGLIKPLEMLQDQGKRSVPSEKLTTAMNRFKAALEEANGEIEKFSNRSNICRFLTASQDKILFKDVNRKLSDVWKELSLLLQVEQRMPVSPISQGASWAQEDQQDADEDRRAFQMLRRDNEKIEASLRRLEINMKEIKETLRQYLPP
By stoichiometry N is commonly meant a count of units in the complex or per binding partner. In the case of B1, the “stoichiometry N” value came out at 2.

Source of the values: publication PMC4769881 (Molecular cell, 2016).
